# Measurements taken from patent publication US20090142346A1 (Takeda / Millennium, published 2009).
# T1: human nectin-2δ protein (human, UniProt Q92692 32-538)
# T1 construct: full length, stably on CHO-K1 (43-2) or transiently on CHO-K1 from pEE12.4-Nectin-2δ
# T1 sequence: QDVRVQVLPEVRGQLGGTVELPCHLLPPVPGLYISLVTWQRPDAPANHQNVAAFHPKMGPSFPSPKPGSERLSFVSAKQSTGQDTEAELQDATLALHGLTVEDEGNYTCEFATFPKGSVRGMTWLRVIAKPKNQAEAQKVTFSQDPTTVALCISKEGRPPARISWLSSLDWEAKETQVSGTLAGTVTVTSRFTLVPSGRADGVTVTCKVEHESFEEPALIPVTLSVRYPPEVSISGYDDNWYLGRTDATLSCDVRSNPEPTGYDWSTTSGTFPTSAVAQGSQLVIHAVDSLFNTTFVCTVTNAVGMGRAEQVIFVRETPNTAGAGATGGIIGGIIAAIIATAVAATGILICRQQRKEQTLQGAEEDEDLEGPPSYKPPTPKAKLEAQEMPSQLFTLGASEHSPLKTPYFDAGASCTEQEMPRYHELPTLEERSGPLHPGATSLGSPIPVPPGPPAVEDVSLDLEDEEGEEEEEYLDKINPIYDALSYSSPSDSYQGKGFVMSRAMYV
# T2: cynomolgus monkey nectin-2 protein (cynomolgus monkey, UniProt Q92692 32-538 (human entry))
# T2 construct: transient on CHO-K1; also called maNectin-2
# T2 chain: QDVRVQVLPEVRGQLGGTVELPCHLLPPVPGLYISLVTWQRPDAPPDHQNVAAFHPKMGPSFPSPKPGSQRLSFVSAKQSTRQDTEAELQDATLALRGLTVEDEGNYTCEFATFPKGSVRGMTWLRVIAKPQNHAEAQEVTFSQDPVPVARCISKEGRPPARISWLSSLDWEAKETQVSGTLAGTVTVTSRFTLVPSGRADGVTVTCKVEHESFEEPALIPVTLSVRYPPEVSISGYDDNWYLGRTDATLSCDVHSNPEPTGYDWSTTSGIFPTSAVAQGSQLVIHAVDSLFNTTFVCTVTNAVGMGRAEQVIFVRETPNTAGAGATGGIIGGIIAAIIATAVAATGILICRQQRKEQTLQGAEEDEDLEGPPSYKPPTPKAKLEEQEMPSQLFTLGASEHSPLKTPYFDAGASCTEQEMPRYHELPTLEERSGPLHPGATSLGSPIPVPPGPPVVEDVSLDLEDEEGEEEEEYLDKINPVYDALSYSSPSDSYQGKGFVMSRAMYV
# T3: human nectin-2δ G113R (human, UniProt Q92692 32-538)
# T3 construct: transient on CHO-K1
# T3 sequence: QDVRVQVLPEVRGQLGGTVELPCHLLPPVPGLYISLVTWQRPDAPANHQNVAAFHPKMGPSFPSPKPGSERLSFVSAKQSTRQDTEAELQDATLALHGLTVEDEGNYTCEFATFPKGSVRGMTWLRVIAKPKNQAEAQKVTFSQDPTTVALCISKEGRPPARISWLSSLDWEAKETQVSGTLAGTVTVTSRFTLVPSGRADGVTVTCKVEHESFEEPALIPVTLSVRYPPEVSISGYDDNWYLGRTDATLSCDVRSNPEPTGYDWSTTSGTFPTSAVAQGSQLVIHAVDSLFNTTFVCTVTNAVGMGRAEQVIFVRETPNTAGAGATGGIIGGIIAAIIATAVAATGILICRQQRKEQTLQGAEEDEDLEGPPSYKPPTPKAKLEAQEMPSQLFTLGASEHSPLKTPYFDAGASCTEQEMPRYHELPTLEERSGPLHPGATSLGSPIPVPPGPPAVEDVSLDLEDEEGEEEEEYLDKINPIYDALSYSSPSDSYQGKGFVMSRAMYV
# T4: human nectin-2δ H128R (human, UniProt Q92692 32-538)
# T4 construct: transient on CHO-K1
# T4 sequence: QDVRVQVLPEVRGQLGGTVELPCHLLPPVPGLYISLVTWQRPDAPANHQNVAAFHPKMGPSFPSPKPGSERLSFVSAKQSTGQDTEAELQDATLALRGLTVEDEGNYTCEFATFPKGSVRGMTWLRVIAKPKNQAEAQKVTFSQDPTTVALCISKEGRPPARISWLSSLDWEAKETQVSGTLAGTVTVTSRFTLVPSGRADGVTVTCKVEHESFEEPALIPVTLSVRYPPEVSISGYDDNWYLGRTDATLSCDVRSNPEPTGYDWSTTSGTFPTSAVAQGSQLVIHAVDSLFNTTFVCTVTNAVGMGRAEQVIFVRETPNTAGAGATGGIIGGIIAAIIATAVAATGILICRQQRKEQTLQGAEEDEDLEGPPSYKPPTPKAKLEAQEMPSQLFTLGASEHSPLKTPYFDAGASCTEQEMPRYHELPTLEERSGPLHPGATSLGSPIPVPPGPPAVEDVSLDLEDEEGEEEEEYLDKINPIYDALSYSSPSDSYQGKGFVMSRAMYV
# T5: human nectin-2δ AN77-78PD (human, UniProt Q92692 32-538)
# T5 construct: transient on CHO-K1
# T5 sequence: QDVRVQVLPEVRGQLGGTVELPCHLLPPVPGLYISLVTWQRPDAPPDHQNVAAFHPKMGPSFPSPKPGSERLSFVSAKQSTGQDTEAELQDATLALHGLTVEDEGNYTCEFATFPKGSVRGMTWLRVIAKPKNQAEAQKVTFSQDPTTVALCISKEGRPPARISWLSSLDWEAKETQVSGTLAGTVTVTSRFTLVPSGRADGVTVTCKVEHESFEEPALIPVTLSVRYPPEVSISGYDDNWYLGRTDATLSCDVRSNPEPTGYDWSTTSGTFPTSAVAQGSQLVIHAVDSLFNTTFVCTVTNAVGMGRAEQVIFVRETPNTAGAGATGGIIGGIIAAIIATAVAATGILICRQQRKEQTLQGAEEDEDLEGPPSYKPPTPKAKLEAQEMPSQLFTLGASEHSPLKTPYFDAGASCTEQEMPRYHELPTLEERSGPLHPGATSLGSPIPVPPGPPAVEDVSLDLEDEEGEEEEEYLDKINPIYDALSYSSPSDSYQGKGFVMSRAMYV
# T6: nectin-2 Ig2 domain-deficient protein (human, UniProt Q92692 32-538)
# T6 construct: also called delta-Ig2; Nectin-2ΔIg2
# T6 sequence: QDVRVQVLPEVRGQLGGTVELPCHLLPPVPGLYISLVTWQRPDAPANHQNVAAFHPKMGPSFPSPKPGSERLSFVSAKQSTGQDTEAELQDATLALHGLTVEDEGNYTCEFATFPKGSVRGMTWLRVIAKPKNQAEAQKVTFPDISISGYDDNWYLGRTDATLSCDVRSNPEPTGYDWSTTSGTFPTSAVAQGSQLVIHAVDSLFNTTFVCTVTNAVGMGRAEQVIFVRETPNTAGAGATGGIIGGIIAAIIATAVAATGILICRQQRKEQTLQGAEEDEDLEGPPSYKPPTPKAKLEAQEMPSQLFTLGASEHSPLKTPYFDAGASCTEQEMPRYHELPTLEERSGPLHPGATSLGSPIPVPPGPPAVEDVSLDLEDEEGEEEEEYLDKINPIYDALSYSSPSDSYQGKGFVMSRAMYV
# Key:
# human nectin-2δ protein = molecular target: T1, human nectin-2δ protein; test: FCM, CHO-K1 transient
# Procedure: (§1) A ratio of the median value of fluorescence intensities of negative control plasmid pcDNA3.1(+)-transfected CHO-K1 cells to the median value of fluorescence intensities of each gene-transfected CHO-K1 cells was calculated for each antibody.
# (§2) Then, after 200 μL of FCM buffer was added to each well and washed once by centrifugal operation, 50 μL each of Alexa488-labeled secondary antibody diluted in FCM buffer to 10 μg/mL was added thereto for suspension, and the mixture was then reacted on ice for an hour. As secondary antibodies, Alexa Fluor488 goat anti-human IgG (H+L) was used for the human antibodies and Alexa Fluor488 goat anti-rabbit IgG (H+L) (Invitrogen) was used for the rabbit antibody, respectively. Next, the cells were washed twice with FCM buffer and then resuspended in 250 μL of FCM buffer.
# [1] = molecular target: T2, cynomolgus monkey nectin-2 protein; test: FCM, CHO-K1 transient
# Procedure: as §1, §2
# human nectin-2δ G113R = molecular target: T3, human nectin-2δ G113R; test: FCM, CHO-K1 transient
# Procedure: (§3) After these cells were further washed twice with FCM buffer and then resuspended in 250 μL of FCM buffer, fluorescence intensity of the stained cells was measured by the flow cytometer MPL500 (BECKMAN COULTER). A ratio of the median value of fluorescence intensities of negative control plasmid pcDNA3.1(+)-transfected CHO-K1 cells to the median value of fluorescence intensities of each gene-transfected CHO-K1 cells was calculated for each antibody.
# (§4) Then, after 200 μL of FCM buffer was added to each well and washed once by centrifugal operation, 50 μL of Alexa Fluor488 goat anti-human IgG (H+L) diluted in FCM buffer to 10 μg/mL was added thereto for suspension, and the mixture was then reacted on ice for an hour. Next, the cells were washed twice with FCM buffer and resuspended in 250 μL of FCM buffer.
# human nectin-2δ H128R = molecular target: T4, human nectin-2δ H128R; test: FCM, CHO-K1 transient
# Procedure: as §3, §4
# [2] = molecular target: T5, human nectin-2δ AN77-78PD; test: FCM, CHO-K1 transient
# Procedure: as §3, §4
# [3] = molecular target: T6, nectin-2 Ig2 domain-deficient protein; test: FCM
# Procedure: After 200 μL of FCM buffer was added to each well and washed once by centrifugal operation, 50 μL each of Alexa488-labeled secondary antibody diluted in FCM buffer to 10 μg/mL was added to and mixed therewith, and the mixture was then reacted on ice for an hour. The Alexa488-labeled secondary antibody used was Alexa Fluor488 goat anti-human IgG (H+L) for the human antibodies and Alexa Fluor488 goat anti-rabbit IgG (H+L) (Invitrogen) for the rabbit antibody. The cells in each well were washed twice with FCM buffer and then resuspended in 250 μL of FCM buffer. Using the flow cytometer MPL500 (BECKMAN COULTER), the fluorescence intensity of stained cells was measured to determine the ratio of the median value of fluorescence intensities of the respective antibodies in the primary antibody group to the median value of fluorescence intensities in the negative control group.
binder,measurement,setting,value
"Nec1-554-1 (antibody, human IgG1, V domains shown, human IgG1/k; also called Nec1-554-1 SP3) VH: EVQLVESGGGLVKPGGSLRLSCAASGFTFSSYNMNWVRQAPGKGLEWVSSISSSSSYIYYADSVKGRFTISRDNAKNSLYLQMNSLRAEDTAVYYCARDYYGSGTYYLFDYWGQGTLVTVSS VL: EIVLTQSPDFQSVTPKEKVTITCRASQSIGSSLHWYQQKPDQSPKLLIKYASQSFSGVPSRFSGSGSGTDFTLTINSLEAEDAAAYYCHQSRSLPITFGQGTRLEIK",median fluorescence ratio,human nectin-2δ protein,43 ratio
same,median fluorescence ratio,[1],14.8 ratio
same,median fluorescence ratio,human nectin-2δ G113R,38.7 ratio
same,median fluorescence ratio,human nectin-2δ H128R,51.5 ratio
same,median fluorescence ratio,[2],44.2 ratio
same,binding result,[3],no binding (tested: ratio below 2 = no reactivity)
